# T1: ASM (Mus musculus, UniProt Q04519)
# T1 construct: from tissue; host or cells: mouse serum/plasma and brain tissue (APP/PS1, RSD-stressed C57BL/6, FUS R521C mice)
# T1 sequence (Q04519 45-627): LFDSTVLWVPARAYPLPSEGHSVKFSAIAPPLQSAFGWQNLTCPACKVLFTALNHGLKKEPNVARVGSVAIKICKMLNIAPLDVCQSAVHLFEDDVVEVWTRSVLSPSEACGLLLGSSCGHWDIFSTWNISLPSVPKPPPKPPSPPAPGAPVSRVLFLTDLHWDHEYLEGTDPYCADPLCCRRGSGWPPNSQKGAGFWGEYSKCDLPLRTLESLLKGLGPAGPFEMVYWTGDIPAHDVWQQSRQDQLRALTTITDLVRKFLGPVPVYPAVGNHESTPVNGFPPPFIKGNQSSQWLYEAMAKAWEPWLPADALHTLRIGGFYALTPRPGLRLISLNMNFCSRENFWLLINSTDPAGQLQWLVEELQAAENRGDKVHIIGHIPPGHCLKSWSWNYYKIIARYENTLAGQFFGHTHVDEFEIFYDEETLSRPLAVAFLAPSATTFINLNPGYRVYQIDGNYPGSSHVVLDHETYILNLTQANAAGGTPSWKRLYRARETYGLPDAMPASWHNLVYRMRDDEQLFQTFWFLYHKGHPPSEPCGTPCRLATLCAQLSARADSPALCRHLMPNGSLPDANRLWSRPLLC
# B1: ASM-ab 23A12C3: self-made monoclonal ASM antibody, Koma biotech; heavy chain SEQ ID NO. 29, light chain SEQ ID NO. 30 (antibody)
# heavy: MGWSWIFLFLLSGTAGVHSEVQLQQSGPVLVKPGASVKMSCKASGYTFTDYYMNWVKQSHGKSLEWIGVINPYNDGTSYNQKFKGKATLTVDKSSSTAYMELNSLTSEDSAVYYCAREKLYYYGRDYAMDYWGQGTSVTVSSAKTTPPSVYPLAPGSAAQTNSMVTLGCLVKGYFPEPVTVTWNSGSLSSGVHTFPAVLQSDLYTLSSSVTVPSSTWPSQTVTCNVAHPASSTKVDKKIVPRDCGCKPCICTVPEVSSVFIFPPKPKDVLTITLTPKVTCVVVDISKDDPEVQFSWFVDDVEVHTAQTKPREEQINSTFRSVSELPIMHQDWLNGKEFKCRVNSAAFPAPIEKTISKTKGRPKAPQVYTIPPPKEQMAKDKVSLTCMITNFFPEDITVEWQWNGQPAENYKNTQPIMDTDGSYFVYSKLNVQKSNWEAGNTFTCSVLHEGLHNHHTEKSLSHSPGK
# light: MSSAQFLGLLLLCFQGTRCDIQMTQTTSSLSASLGDRVTISCRSSQDISNYLNWCQQKPDGTVKLLIYYTSRLHSGVPSRFSGSGSGTDYSLTISNLEQEDIATYFCQQDNTLPYTFGGGTKLEIKRADAAPTVSIFPPSSEQLTSGGASVVCFLNNFYPKDINVKWKIDGSERQNGVLNSWTDQDSKDSTYSMSSTLTLTKDEYERHNSYTCEATHKTSTSPIVKSFNRNEC
# modifications: 23A12C3_Heavy chain; 23A12C3_Light chain
# notes: self-made monoclonal ASM antibody, Koma biotech; 30
# Key:
# ASM [1] = biological target: T1, ASM; assay: ASM activity / concentration level in serum (plasma) and brain tissue of APP/PS1 mice (UPLC); format: in vivo; conditions: 7-month-old APP/PS1 mice, 50 mg/kg i.p. twice weekly, vs PBS; FIG. 51B
# Method: More specifically, 3 μl of plasma, brain tissue and fibroblast samples from each mouse were mixed with an ASM activity buffer, and stored at 37° C. The hydrolysis reaction was completed by adding 114 μl of ethanol to the mixed solution, and then the mixed solution was centrifuged. 30 μl of the supernatant was transferred into a glass vial, and then 5 μl was applied to the UPLC system. The ASM concentration level was quantified in comparison with a bodipy (aminoacetaldehyde) combined with sphingomyelin and ceramide. The sphingomyelin and ceramide levels were extracted and quantified according to a known method, by extracting lipid from the sample, resuspending the dried lipid extract in 25 μl of 0.2% Igepal CA-630 (Sigma-Aldrich), and quantifying the concentration level of each lipid using the UPLC system. […] The animal test conducted was approved by the Kyungpook National University Institutional Animal Care and Use Committee (IACUC). Transgenic mouse line overexpressing APPswe (hAPP695swe) and PS1 (presenilin-1M146V) based on C57BL/6 mice (Charles River, UK) were used as Alzheimer's animal models [hereinafter, APP mice: mice overexpressing APPswe, PS1 mice: overexpressing presenilin-1M146V; GlaxoSmithKline]. […] The concentration level of ASM was measured as follows. Specifically, 3μ ? of mouse serum, brain tissue and fibroblast samples were mixed with ASM activity buffer and stored at 37° C. 114 μ ? of ethanol was added to terminate the hydrolysis reaction, followed by centrifugation. […] The ASM concentration levels were quantified by comparison with sphingomyelin and Bodipy (aminoacetaldehyde) conjugated with ceramide. The extraction and quantification of the sphingomyelin and ceramide was carried out by extracting and drying the lipids from the sample according to a known conventional method, and resuspending the dried lipid extract to 25 μl of 0.2% Igepal CA-630 (Sigma-Aldrich), and the concentration levels of each lipid were quantitated using the UPLC system. […] The concentration level of ASM was measured as follows. […]
# APP/PS1 mice = assay: Morris water maze (MWM) test in APP/PS1 mice; format: in vivo, mouse; conditions: 50 mg/kg i.p. twice weekly, vs PBS, FIG. 55A-55C
# Method: More specifically, wild type mice, APP/PS1/ASM^+/− mice, ASM^+/− mice and APP/PS1 mice were used. The mice were given four trials per day for 10 days to learn the task, and on day 11, the mice were given a probe trial in which the platform was removed. The escape latency during the test period and the time spent in the target platform on day 11 were measured. The results are illustrated in FIG. 7 and FIG. 8.
# (§1) MWM (Morris water maze) experiments were performed in a conventional manner to identify potential effects on learning and memory. Briefly, for the MWM test, mouse were learned the task four times a day for 10 days, followed by the removal of the platform on the 11th day and subsequently a probe trial performed.
# as §1, with “mice” for “mouse”
# ASM [2] = biological target: T1, ASM; assay: ASM activity in plasma of depression-induced (RSD stress) mice; format: in vivo; conditions: 50 mg/kg i.p. twice weekly for 4 weeks prior to induction, vs PBS, FIG. 58B
# Method: The concentration level of ASM was measured as follows. Specifically, 3μ ? of mouse serum, brain tissue and fibroblast samples were mixed with ASM activity buffer and stored at 37° C. 114 μ ? of ethanol was added to terminate the hydrolysis reaction, followed by centrifugation. 30 μ ? of supernatant was transferred to a glass vial, of which 5 μ ? was applied to the UPLC system. The ASM concentration levels were quantified by comparison with sphingomyelin and Bodipy (aminoacetaldehyde) conjugated with ceramide. The extraction and quantification of the sphingomyelin and ceramide was carried out by extracting and drying the lipids from the sample according to a known conventional method, and resuspending the dried lipid extract to 25 μl of 0.2% Igepal CA-630 (Sigma-Aldrich), and the concentration levels of each lipid were quantitated using the UPLC system. […]
# The concentration level of ASM was measured as follows. […] The ASM concentration levels were quantified by comparison with sphingomyelin and Bodipy (aminoacetaldehyde) conjugated with ceramide. The extraction and quantification of the sphingomyelin and ceramide was carried out by extracting and drying the lipids from the sample according to a known conventional method, and resuspending the dried lipid extract to 25 μl of 0.2% Igepal CA-630 (Sigma-Aldrich), and the concentration levels of each lipid were quantitated using the UPLC system.
molecule,measurement,setting,value
B1,level of ASM concentration (ASM activity) in the plasma,ASM [1],remarkably low
same,"impairments in spatial memory, cognition and memory formation (MWM)",APP/PS1 mice,improved
same,level of ASM activity in the plasma,ASM [2],significantly low
